Measurements taken from paper doi:10.1101/2024.09.22.614354 (bioRxiv, 2024).
Where two headings read alike, the source gives them in different places.

Experiments:
Assay in all cases: fluorescence polarisation
[1] = biological target: T1, wild type Rb pocket domain (Rb^P) (human, UniProt P06400 380-788)
T1 sequence: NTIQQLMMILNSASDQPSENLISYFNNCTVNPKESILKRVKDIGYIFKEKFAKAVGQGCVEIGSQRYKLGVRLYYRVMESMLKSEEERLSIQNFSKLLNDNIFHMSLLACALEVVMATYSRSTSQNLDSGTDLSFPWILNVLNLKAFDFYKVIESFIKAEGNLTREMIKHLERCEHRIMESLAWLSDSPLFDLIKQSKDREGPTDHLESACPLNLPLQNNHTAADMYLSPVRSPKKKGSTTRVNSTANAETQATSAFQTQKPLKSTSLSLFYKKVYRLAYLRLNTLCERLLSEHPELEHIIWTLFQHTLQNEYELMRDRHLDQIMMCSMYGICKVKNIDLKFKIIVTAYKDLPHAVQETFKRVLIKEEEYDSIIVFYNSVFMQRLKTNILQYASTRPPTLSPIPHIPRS

Rb^P I703F = biological target: T2, Rb^P I703F (human, UniProt P06400 380-788, I703F)
T2 sequence: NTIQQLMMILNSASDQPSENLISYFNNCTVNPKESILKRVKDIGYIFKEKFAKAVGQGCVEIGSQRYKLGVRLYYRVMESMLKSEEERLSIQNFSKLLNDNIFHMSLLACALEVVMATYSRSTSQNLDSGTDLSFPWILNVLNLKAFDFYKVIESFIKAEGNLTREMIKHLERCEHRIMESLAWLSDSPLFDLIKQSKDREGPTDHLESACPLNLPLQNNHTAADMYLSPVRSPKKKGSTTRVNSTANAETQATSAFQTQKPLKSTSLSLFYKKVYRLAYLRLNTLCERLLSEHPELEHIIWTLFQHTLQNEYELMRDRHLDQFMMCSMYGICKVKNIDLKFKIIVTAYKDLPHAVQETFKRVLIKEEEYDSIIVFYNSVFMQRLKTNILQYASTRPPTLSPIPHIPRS

Rb^P M704V = biological target: T3, Rb^P M704V (human, UniProt P06400 380-788, M704V)
T3 sequence: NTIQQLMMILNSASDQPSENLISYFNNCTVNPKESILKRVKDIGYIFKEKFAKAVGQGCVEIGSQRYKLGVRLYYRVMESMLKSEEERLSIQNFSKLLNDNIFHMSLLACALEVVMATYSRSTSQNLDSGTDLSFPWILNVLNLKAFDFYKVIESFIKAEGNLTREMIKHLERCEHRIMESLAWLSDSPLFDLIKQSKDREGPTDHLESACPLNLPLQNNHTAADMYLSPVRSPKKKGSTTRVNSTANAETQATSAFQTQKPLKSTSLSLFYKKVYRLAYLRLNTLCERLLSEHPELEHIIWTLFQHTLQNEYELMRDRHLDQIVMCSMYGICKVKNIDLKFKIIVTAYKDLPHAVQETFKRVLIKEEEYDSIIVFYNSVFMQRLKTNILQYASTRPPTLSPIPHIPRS

Rb^P E554K = biological target: T4, Rb^P E554K (human, UniProt P06400 380-788, E554K)
T4 sequence: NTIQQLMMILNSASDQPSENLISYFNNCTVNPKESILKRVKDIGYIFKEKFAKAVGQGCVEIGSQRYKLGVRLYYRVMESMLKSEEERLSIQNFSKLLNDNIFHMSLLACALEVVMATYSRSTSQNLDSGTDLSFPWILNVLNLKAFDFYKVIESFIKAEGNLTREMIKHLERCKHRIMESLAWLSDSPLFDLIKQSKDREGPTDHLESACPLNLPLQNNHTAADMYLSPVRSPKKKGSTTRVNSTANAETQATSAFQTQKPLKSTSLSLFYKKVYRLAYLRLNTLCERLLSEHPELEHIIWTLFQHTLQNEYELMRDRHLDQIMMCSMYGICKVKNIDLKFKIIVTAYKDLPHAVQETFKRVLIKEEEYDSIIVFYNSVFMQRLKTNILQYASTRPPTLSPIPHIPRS

Rb^P S751Y = biological target: T5, Rb^P S751Y (human, UniProt P06400 380-788, S751Y)
T5 sequence: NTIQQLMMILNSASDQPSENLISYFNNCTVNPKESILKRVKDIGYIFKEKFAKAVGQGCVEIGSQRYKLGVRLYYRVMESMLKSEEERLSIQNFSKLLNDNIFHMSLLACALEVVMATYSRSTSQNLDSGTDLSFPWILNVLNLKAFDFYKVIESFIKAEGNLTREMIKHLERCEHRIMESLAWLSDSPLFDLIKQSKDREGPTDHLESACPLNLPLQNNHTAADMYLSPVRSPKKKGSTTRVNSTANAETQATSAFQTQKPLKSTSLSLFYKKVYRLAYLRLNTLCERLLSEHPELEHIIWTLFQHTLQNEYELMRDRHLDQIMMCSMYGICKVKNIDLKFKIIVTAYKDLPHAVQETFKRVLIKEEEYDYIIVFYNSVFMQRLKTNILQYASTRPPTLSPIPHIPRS

[2] = biological target: T1, wild type Rb pocket domain (Rb^P); remark: listed apart in the source

DLYCYEQLN (not fully specified; TMR fluorescent label (TMR-E7^LxCxE)) [TMR-E7^LxCxE (LxCxE peptide of the E7 oncoprotein from HPV, TMR-labeled)]
Kd [1]: 7 nM
Kd (Rb^P I703F): 53 nM
Kd (Rb^P M704V): 14 nM
Kd (Rb^P E554K): 24 nM
Kd (Rb^P S751Y): 12 nM
Kd [2]: 5 nM
